Source: patent US11535650 (RA PHARMACEUTICALS, dated 2022)
Starred links: 1 amine or outer side, 2 acyl side, 3 side chain; linkers in the order of their positions; H or OH if unused. Positions of bridges follow the written chain, without caps; N, C: chain ends. Non-standard residues stand in square brackets, D forms with d. Primed or numbered codes have the meaning given here. No end group written: not given here. Tyr(OMe) = O-methyl tyrosine, COc1ccc(C[C@H](N[*:1])C(=O)[*:2])cc1; mXylyl(5) = bridging moiety between the two residues (meta-xylyl); mXylyl = bridging moiety between residues (mXylyl(i,j)); Trp(7-aza) = N[C@@H](Cc1c[nH]c2ncccc12)C(=O)O; NMePhe(4-F) = CN[C@@H](Cc1ccc(F)cc1)C(=O)O; PEG2000 = polyethylene glycol, 2000 Da; Phe(4-F) = N[C@@H](Cc1ccc(F)cc1)C(=O)O; mXylylene = c1cc(C[*:1])cc(C[*:2])c1; oXylylene = c1ccc(C[*:2])c(C[*:1])c1; pXylylene = c1cc(C[*:2])ccc1C[*:1]; Chg = N[C@H](C(=O)O)C1CCCCC1; Phg = N[C@H](C(=O)O)c1ccccc1; Tle = CC(C)(C)[C@H](N)C(=O)O; NMeS = CN[C@@H](CO)C(=O)O; NMeA = CN[C@@H](C)C(=O)O; Nva = CCC[C@H](N)C(=O)O; Sar = CNCC(=O)O

Biological target: human C5 protein (human, UniProt P01031 19-673; P01031 678-1676)
Experiment: cell-based or functional assay

Row | Binder | Avg. IC50, human hemolysis assay (complete human sera) [nM]
1 | Ac-[Nva]C[Phg]T[Trp(7-aza)]EY[NMeS]HC[Nva]-NH2 (linker 2-10 via oXylylene) [R3049] | > 3100
2 | Ac-[Nva]C[Chg]T[Trp(7-aza)]EY[NMeS]HC[Nva]-NH2 (linker 2-10 via pXylylene) [R3058] | > 10000
3 | Ac-[Nva]CYNN[Tle]E[Trp(7-aza)]EYP[Phg][Tle]-NH2 (SMILES CCC[C@H](NC(C)=O)C(=O)N[C@@H](CS)C(=O)N[C@@H](Cc1ccc(O)cc1)C(=O)N[C@@H](CC(N)=O)C(=O)N[C@@H](CC(N)=O)C(=O)N[C@H](C(=O)N[C@@H](CCC(=O)O)C(=O)N[C@@H](Cc1c[nH]c2ncccc12)C(=O)N[C@@H](CCC(=O)O)C(=O)N[C@@H](Cc1ccc(O)cc1)C(=O)N1CCC[C@H]1C(=O)N[C@H](C(=O)N[C@H](C(N)=O)C(C)(C)C)c1ccccc1)C(C)(C)C) [R3004] | 53.5
4 | Ac-[Nva]CY[Trp(7-aza)][Sar][Tle][Nva][Trp(7-aza)]EYP[Phg]P-NH2 (SMILES CCC[C@H](NC(C)=O)C(=O)N[C@@H](CS)C(=O)N[C@@H](Cc1ccc(O)cc1)C(=O)N[C@@H](Cc1c[nH]c2ncccc12)C(=O)N(C)CC(=O)N[C@H](C(=O)N[C@@H](CCC)C(=O)N[C@@H](Cc1c[nH]c2ncccc12)C(=O)N[C@@H](CCC(=O)O)C(=O)N[C@@H](Cc1ccc(O)cc1)C(=O)N1CCC[C@H]1C(=O)N[C@H](C(=O)N1CCC[C@H]1C(N)=O)c1ccccc1)C(C)(C)C) [R3005] | 66.7
5 | Ac-[Nva]C[Phg]T[Trp(7-aza)]EY[NMeS]C[Nva]-NH2 (linker 2-9 via mXylyl(5)) [R3080] | > 50000
6 | Ac-[Nva]C[Phg]T[Trp(7-aza)]EY[NMeS]HC[Nva]-NH2 (bridge 2-10) [R3042] | > 100000
7 | [Nva]CY[NMeS][Phg][NMePhe(4-F)][NMeS]H[NMePhe(4-F)]GC-NH2 (linker 2-11 via mXylyl(5)) [R3075] | > 75000
8 | Ac-VC[Phg]T[Trp(7-aza)]EY[NMeS]AC[Nva]-NH2 (linker 2-10 via mXylyl(5)) [R3083] | > 25000
9 | [Nva]CCN[Tle][Phg]C[Tle][NMeS]C[Tle]-NH2 (linker (positions not given here) via mXylylene; also: mXylyl-bicyclo: Cys pairing not given here) [R3053] | > 100000
10 | Ac-[Nva]C[Phg]T[Trp(7-aza)]EY[NMeS]AC[Nva]-NH2 (linker 2-10 via mXylyl) [R3038] | 140
11 | MCVERFC-NH2 (linker 2-7 via mXylyl(5)) [R3047] | > 100000
12 | Ac-[Nva]C[Phg]T[Trp(7-aza)]E[Tyr(OMe)][NMeS]HC[Nva]-NH2 (linker 2-10 via mXylyl(5)) [R3074] | 308
13 | Ac-[Nva][Nva]YEN[Tle]Y[Trp(7-aza)]EYP[Chg][Nva]K (not fully specified (residue 14, C-terminus); printed as Ac-Nvl-Nvl-Y-E-N-Tbg-Y-azaTrp-E-Y-P-Chg-Nvl-K-(PEG2000) NH2; also: PEG2000 at C-terminal Lys, attachment site unstated) [R3077] | 81.7
14 | Ac-[Nva]SYEC[Tle]Y[Trp(7-aza)]EYP[Chg]C[Nva]-NH2 (linker 5-13 via mXylyl(5)) [R3086] | > 50000
15 | Ac-YEN[Tle]Y[Trp(7-aza)]EY[Sar][Nva][NMeS]-NH2 (SMILES CCC[C@H](NC(=O)CN(C)C(=O)[C@H](Cc1ccc(O)cc1)NC(=O)[C@H](CCC(=O)O)NC(=O)[C@H](Cc1c[nH]c2ncccc12)NC(=O)[C@H](Cc1ccc(O)cc1)NC(=O)[C@@H](NC(=O)[C@H](CC(N)=O)NC(=O)[C@H](CCC(=O)O)NC(=O)[C@H](Cc1ccc(O)cc1)NC(C)=O)C(C)(C)C)C(=O)N(C)[C@@H](CO)C(N)=O) [R3006] | 267
16 | Ac-[Nva]C[Phg]T[Trp(7-aza)]EY[NMeA]HC[Nva]-NH2 (linker 2-10 via mXylyl) [R3037] | 276
17 | MCVERFCDVYW-NH2 (linker 2-7 via mXylyl) [R3044] | > 50000

Row | Binder | Avg. IC50, human hemolysis assay (complete human sera) [nM]
18 | MCVERFCDVY-NH2 (linker 2-7 via mXylyl) [R3045] | > 100000
19 | Ac-[Nva]C[Phg]T[Trp(7-aza)]EY[NMeS]HCA-NH2 (linker 2-10 via mXylyl) [R3039] | 240
20 | Ac-[Nva]C[Phg]T[Trp(7-aza)]EYSAC[Nva]-NH2 (linker 2-10 via mXylyl(5)) [R3084] | > 100000
21 | Ac-[Nva]C[Phg]T[Trp(7-aza)]AY[NMeS]HC[Nva]-NH2 (linker 2-10 via mXylyl) [R3035] | > 50000
22 | MCVERFCD[Tle]Y[Trp(7-aza)]EYP[Phg][Nva]-NH2 (linker 2-7 via mXylyl(5)) [R3057] | 12.4
23 | MCVERFCDV-NH2 (linker 2-7 via mXylyl(5)) [R3046] | > 100000
24 | Ac-[Nva]C[Phg]T[Trp(7-aza)]E[Phe(4-F)][NMeS]HC[Nva]-NH2 (linker 2-10 via mXylyl(5)) [R3073] | 403
25 | Ac-YEN[Tle]YWEYP[Phg][Nva]-NH2 (SMILES CCC[C@H](NC(=O)[C@@H](NC(=O)[C@@H]1CCCN1C(=O)[C@H](Cc1ccc(O)cc1)NC(=O)[C@H](CCC(=O)O)NC(=O)[C@H](Cc1c[nH]c2ccccc12)NC(=O)[C@H](Cc1ccc(O)cc1)NC(=O)[C@@H](NC(=O)[C@H](CC(N)=O)NC(=O)[C@H](CCC(=O)O)NC(=O)[C@H](Cc1ccc(O)cc1)NC(C)=O)C(C)(C)C)c1ccccc1)C(N)=O) [R3041] | 71.3
26 | [Nva]CY[NMeS][Phg][NMePhe(4-F)][NMeS]H[NMePhe(4-F)][Sar]C-NH2 (linker 2-11 via mXylyl(5)) [R3051] | > 100000
27 | Ac-[Nva]C[Phg]T[Trp(7-aza)]EY[NMeS]HC[Nva]P[Nva] (bridge 2-10) [R3040] | > 100000
28 | Ac-CVERFCDVYWEF-NH2 (linker 1-6 via mXylyl(5)) [R3048] | 19.3
29 | Ac-[Nva][Nva]YEN[Tle]Y[Trp(7-aza)]EYP[Chg][Nva]K-NH2 (SMILES CCC[C@H](NC(C)=O)C(=O)N[C@@H](CCC)C(=O)N[C@@H](Cc1ccc(O)cc1)C(=O)N[C@@H](CCC(=O)O)C(=O)N[C@@H](CC(N)=O)C(=O)N[C@H](C(=O)N[C@@H](Cc1ccc(O)cc1)C(=O)N[C@@H](Cc1c[nH]c2ncccc12)C(=O)N[C@@H](CCC(=O)O)C(=O)N[C@@H](Cc1ccc(O)cc1)C(=O)N1CCC[C@H]1C(=O)N[C@H](C(=O)N[C@@H](CCC)C(=O)N[C@@H](CCCCN)C(N)=O)C1CCCCC1)C(C)(C)C) [R3072] | 26.9
30 | PEG2000-[Nva][Nva]YEN[Tle]Y[Trp(7-aza)]EYP[Phg][Nva]-NH2 [R3078] | 568
31 | Ac-[Nva]CKE[Phg]YC[NMeS][Tle]K[Trp(7-aza)]EY-NH2 (linker 2-7 via mXylyl) [R3007] | 314
32 | [Nva]CY[Tle][Phg]N[Sar]LC[Phg][NMeA]-NH2 (linker 2-9 via mXylyl(5)) [R3052] | > 100000
33 | Ac-[Nva]C[Phg]T[Trp(7-aza)]EA[NMeS]HC[Nva]-NH2 (linker 2-10 via mXylyl) [R3036] | > 50000
34 | Ac-[Nva]C[Phg]T[Trp(7-aza)]EYPHC[Nva]-NH2 (linker 2-10 via pXylylene) [R3065] | 394
